Test results: patent US7691567B2, “Methods and compositions relating to fortilin, an anti-apoptotic molecule, and modulators of fortilin” (Board of Regents, the University of Texas System, priority 2000, dated 2010)
Entries after “also recorded” stand apart in the source; their conditions may differ. Like-named read-outs stand apart in the source and are kept apart here.

How the values were obtained:
[1] = test system: U2OS cells; details: for cytotoxicity index relative to control transfectants: U2OS stable transfectants of HA-tagged Fortilin or deletion mutants, 5 μg/mL etoposide 48 hours
Excerpt: Generation and characterization of U2OS cells stably expressing Fortilin. U2OS cells were transfected with empty pcDNA6, a mammalian expression vector containing a blasticidine resistance gene (Invitrogen, Carlsbad, Calif.), or with pcDNA6 vector encoding wild-type Fortilin, by using FuGENE6 (Roche Molecular Biochemicals) according to the manufacturer's instructions. Transfected cells were selected for approximately 3 weeks and characterized by Western blot analysis. For the cytotoxicity assay, U2OS cells stably expressing wild-type Fortilin (U2OS.F) and U2OS cells stably harboring empty pcDNA6 (U2OS.E) were seeded in a 96 well plate in quadruplicate. For the investigation of dose response, cells were challenged with various concentrations of etoposide (0-20 μg/mL) for 48 hours. For the time course study, cells were challenged with 5 μg/mL of etoposide and harvested after various incubation periods (0-96 hours). In both cases, the cell media were assayed for the lactate dehydrogenase (LDH) activity released from the cytosol of damaged cells, using a cytotoxicity detection kit (Roche Molecular Biochemicals) according to the manufacturer's instructions. The cytotoxicity index was calculated as follows: (LDH activity in the media−background LDH activity)÷(LDH activity in the medium of cells lysed by 1% Triton X-100−background LDH activity)×100.
Cell death assay. U2OS cells stably expressing Fortilin or its mutants were seeded in 96-well plates in triplicate. Cells were then challenged with 5 μg/mL of etoposide (Sigma) for 48 hours. Then the cell media were assayed for the lactate dehydrogenase (LDH) activity released from the cytosol of damaged cells, using a Cytotoxicity Detection Kit (Roche Molecular Biochemicals), according to the manufacturer's instructions. The cytotoxicity index was calculated as follows: (LDH activity in the media−background LDH activity)/(LDH activity in the medium of the cells lysed by 1% Triton X-100−background LDH activity)×100.
Statistical analysis. For analysis of the statistical significance of differences in cytotoxicity indices among cells stably transfected with Fortilin, its mutants or control plasmids, Student's t-test was performed using a commercial software (Minitab Inc., State College, Pa.). In all cases, a P-value less than 0.05 was considered to be statistically significant.

[2] = target: T1, p53 (Homo sapiens, UniProt P04637); assay: Coimmunoprecipitation of fortilin and p53 from U2OS cell lysates; type: binding; design: endogenous in cells; host or cells: U2OS
Method: As in example 2, studies were initiated to determine whether p53 and Fortilin specifically interact in U2OS cells. Six million U2OS cells stably expressing either HA-fortilin or HA-only were suspended in lysis-binding-wash buffer (50 mM HEPES, pH7.5, 70 mM KCl, 0.5 mM ATP, 5 mM MgSO4, 1 mM DTT, 0.1% NP40, 2 mg/mL BSA, Aprotinin, PMSF, MG132 and protease inhibitor cocktail). Cells were then mechanically disrupted by nitrogen excavitation method. Cleared total cell lysates were incubated with […] anti-HA antibody (3F10, Roche), followed by the incubation with anti-mouse IgG conjugated to magnetic beads (Dynal USA) and extensive wash with lysis-binding-wash buffer.
Further experiments were conducted to determine in vivo immunoprecipitation of fortilin by p53. Twenty million U2OS cells were suspended in lysis-binding buffer (50 mM HEPES, pH7.5, 70 mM KCl, 0.5 mM ATP, 5 mM MgSO4, 1 mM DTT, 0.001% NP40, 2 mg/mL BSA, Aprotinin, PMSF, MG132 and protease inhibitor cocktail). Cells were then mechanically disrupted by nitrogen excavitation method. Cleared total cell lysates were divided equally into two eppendorf tubes. To the first tube, anti-p53 antibody (DO-1, […]) was added, while […] control monoclonal antibody was added to the second tube. After incubation, formed complexes were precipitated by goat anti-mouse IgG conjugated to magnetic beads (Dynal USA), followed by extensive wash. […]

[3] = test system: p53 transactivation of Bax gene; assay: p53 transactivation of Bax gene, p-Bax-RE-Luc luciferase reporter in H1299 cells; type: cell-based
Method: The ability of Fortilin to interfere with transactivation of the Bax gene by p53 was investigated. Non-small cell lung cancer cell line H1299 cells were transfected with p53-pcDNA3, LacZ-pFLAG, p-Bax-RE-Luc (a plasmid encoding the Luciferase gene under the control of the Bax responsive element) and pFLAG vector encoding Bcl-2, MCL1, Fortilin or truncated Fortilin as indicated in FIG. 6. Twenty-four hours after the transfection, luciferase activity was measured and normalized to the β-galactosidase activity, the latter representing transfection efficiency.
Next, studies were conducted to determine whether the inhibition was dosage dependent. H1299 cells were transfected with p53-pcDNA3, LacZ-pFLAG, p-Bax-RE-Luc and various amount of Fortilin-pFLAG. The total amount of DNA added was adjusted by the addition of empty pFLAG vector. Twenty-four hours after the transfection, luciferase activity was measured and normalized to the β-galactosidase activity.

[4] = target: T2, Bcl-xL (Homo sapiens, UniProt Q07817); assay: In vitro pull-down assay of Fortilin-HA with Bcl-xL; type: binding; details: in vitro translated proteins, anti-HA pull-down
[5] = target: T3, MCL1 (Homo sapiens, UniProt Q07820); assay: GST-Fortilin in vitro pull-down of labeled MCL1; type: binding; details: 35S-labeled MCL1
Method: (§1) Studies were initiated to determine whether p53 and Fortilin specifically interact. Either recombinant GST-Fortilin or GST only were incubated at 4° C. for 90 minutes with in vitro translated, [^35S-Met]-labeled p53, MCL1 or Bcl-xL, in Binding Buffer (50 mM HEPES, pH7.5, 70 mM KCl, 0.5 mM ATP, 5 mM MgSO4, 1 mM DTT, 0.001% NP40, 50 μM MG132, 2 μg/mL BSA, Aporotinin, PMSF and protease inhibitor cocktail (Sigma Co., St. Louis, Mo.)). The GST or GST-Fortilin was then pulled down with Glutathione Sepharose 4B beads (Amersham-Pharmacia Biotechnologies). Formed complexes were extensively washed and eluted into SDS loading buffer. The eluted proteins were subjected to SDS-PAGE in duplicate. The first SDS gel was stained with Commassie Blue to confirm the successful immunoprecipitation of GST and GST-Fortilin (IP). […] Thus, there is a specific interaction present between Fortilin and p53, between Fortilin and MCL1.

[6] = test system: H1299 cells; assay: p53-mediated apoptosis in transfected H1299 cells (apoptotic index); type: cell-based; details: overexpression, thirty hours after transfection
Method: Because wild-type p53 can induce apoptosis, the ability of Fortilin to prevent or inhibit p53-mediated apoptosis was examined. H1299 cells were transfected with indicated combinations of mammalian expression constructs. Thirty hours after the transfection, cells were fixed and stained for beta-galactosidase activities. Cells that were round in shape with significant membrane irregularity were counted as apoptotic (FIG. 5). Apoptotic index was calculated as (Blue cells with apoptotic plasma membrane morphology)/(Total blue cells counted)×100.

[7] = target: T3, MCL1; assay: In vitro pull-down assay of HA-tagged Fortilin or mutants with MCL1; type: binding; details: in vitro translated 35S-labeled proteins, anti-HA pull-down
[8] = target: Bax (Homo sapiens, UniProt Q07812); assay: In vitro pull-down assay of Fortilin-HA with Bax; type: binding; details: in vitro translated proteins, anti-HA pull-down
[9] = test system: U2OS cells; assay: Bax-mediated apoptosis in transfected U2OS cells (apoptotic index); type: cell-based; details: U2OS cells cotransfected with Bax-pcDNA3, thirty hours after transfection
Method: The amount of LacZ-pFLAG was 1/10 to 1/20 (w/w) of total amounts of DNA added. Thirty hours after the transfection, cells were stained with X-gal. Blue cells represented cells expressing Bax, β-galactosidase and indicated proteins in question. At least 300 blue cells were counted and evaluated for plasma membrane morphology. Rounded cells were counted as apoptotic. Apoptotic index was calculated as the number of blue apoptotic cells divided by the number of total blue cells counted, expressed in percentage. Without the expression of Bax, there was a modest amount of background cell death noted (Lane 6). On the other hand, the presence of Bax caused 2 holds increase in the number of apoptotic cells (Lane 5). […] Taken together, the ability of Fortilin to inhibit Bax mediated apoptosis is mediated by its interaction with MCL1.

[10] = target: PCNA (Homo sapiens, UniProt P12004); assay: In vitro pull-down assay of Fortilin-HA with PCNA; type: binding; details: in vitro translated proteins, anti-HA pull-down
[11] = target: T2, Bcl-xL; assay: GST-Fortilin in vitro pull-down of labeled Bcl-xL; type: binding; details: 35S-labeled Bcl-xL
Method: as §1

[12] = target: T1, p53; assay: GST-Fortilin in vitro pull-down of labeled p53; type: binding; details: 35S-labeled p53, 4° C. 90 minutes
Method: as §1

[13] = target: T3, MCL1; assay: In vivo coimmunoprecipitation assay in U2OS stable transfectants of Fortilin and mutants; details: anti-HA immunoprecipitation
Excerpt: In vivo coimmunoprecipitation assay. COS-7 cells (2.5×10^6) were cotransfected with pcDNA3-Fortilin-HA or pcDNA3 and with FLAG-MCL1/pFLAG-CMV or pFLAG-CMV vectors using FuGENE6 (Roche Molecular Biochemicals), according to the manufacturer's instructions. […] Formed complexes were precipitated by sheep anti-rat antibodies conjugated to Dynabead™ (Dynal USA); washed with Buffers A and B; eluted into SDS gel loading buffer; and subjected to SDS-PAGE, Western blot transfer and immuodetection with anti-HA (16B12; Covance, Richmond, Calif.) and anti-FLAG (M2; Sigma) antibodies. […] Cells were harvested by scraping, washed with chilled PBS, suspended in Buffer C (Buffer A supplemented with 0.02% NP-40), and lysed by a nitrogen cavitation method (PARR Instrument Co). […] Formed complexes were precipitated by sheep anti-rat antibodies conjugated to Dynabeads™ (Dynal USA); washed with Buffers C; eluted into SDS gel loading buffer; and subjected to SDS-PAGE, Western blot transfer and immuodetection with anti-HA (16B12; Covance, Richmond, Calif.) and anti-MCL1 (Santa Cruz Biotechnology) antibodies.

T3 sequence (Q07820 whole entry): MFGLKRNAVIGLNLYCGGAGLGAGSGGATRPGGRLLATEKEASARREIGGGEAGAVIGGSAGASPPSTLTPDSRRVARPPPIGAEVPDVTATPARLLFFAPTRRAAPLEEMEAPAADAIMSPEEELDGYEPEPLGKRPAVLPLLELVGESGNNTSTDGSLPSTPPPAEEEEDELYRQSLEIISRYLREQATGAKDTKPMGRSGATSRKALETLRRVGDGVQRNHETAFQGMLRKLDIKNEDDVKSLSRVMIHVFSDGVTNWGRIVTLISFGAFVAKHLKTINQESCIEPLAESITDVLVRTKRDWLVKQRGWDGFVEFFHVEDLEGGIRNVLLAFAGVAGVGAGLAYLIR
T1 sequence (P04637 whole entry, species assumed): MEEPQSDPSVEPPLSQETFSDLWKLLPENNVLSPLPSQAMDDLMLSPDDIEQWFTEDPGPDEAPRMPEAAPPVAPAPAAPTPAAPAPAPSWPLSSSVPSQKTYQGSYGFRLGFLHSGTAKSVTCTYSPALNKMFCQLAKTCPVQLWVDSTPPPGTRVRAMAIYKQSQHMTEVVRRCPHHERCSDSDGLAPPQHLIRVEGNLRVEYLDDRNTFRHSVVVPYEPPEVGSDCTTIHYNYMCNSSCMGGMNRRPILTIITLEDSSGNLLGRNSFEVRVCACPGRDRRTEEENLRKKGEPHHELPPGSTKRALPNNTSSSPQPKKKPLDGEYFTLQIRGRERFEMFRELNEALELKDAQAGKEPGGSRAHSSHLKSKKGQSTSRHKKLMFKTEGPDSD
T2 sequence (Q07817 whole entry, species assumed): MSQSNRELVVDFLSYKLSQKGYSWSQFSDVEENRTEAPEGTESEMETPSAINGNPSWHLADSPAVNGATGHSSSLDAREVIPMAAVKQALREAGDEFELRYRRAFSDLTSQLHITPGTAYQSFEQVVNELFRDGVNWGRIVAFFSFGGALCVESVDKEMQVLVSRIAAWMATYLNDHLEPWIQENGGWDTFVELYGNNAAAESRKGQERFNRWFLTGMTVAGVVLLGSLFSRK
PCNA, sequence (P12004 whole entry, species assumed): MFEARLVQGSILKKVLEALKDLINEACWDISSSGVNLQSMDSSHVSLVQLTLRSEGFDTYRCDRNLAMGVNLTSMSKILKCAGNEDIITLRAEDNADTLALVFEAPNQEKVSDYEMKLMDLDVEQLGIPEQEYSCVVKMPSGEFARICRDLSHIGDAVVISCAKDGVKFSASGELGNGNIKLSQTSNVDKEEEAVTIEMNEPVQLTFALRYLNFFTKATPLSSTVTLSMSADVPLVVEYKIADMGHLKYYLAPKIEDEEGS
Bax, sequence (Q07812 whole entry, species assumed): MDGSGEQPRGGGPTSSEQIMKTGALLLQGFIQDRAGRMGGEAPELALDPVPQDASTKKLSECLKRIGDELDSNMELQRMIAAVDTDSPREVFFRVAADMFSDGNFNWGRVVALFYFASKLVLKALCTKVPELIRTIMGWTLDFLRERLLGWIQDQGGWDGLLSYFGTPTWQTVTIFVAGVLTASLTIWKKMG

Substance: Fortilin: 172 amino acid anti-apoptotic polypeptide (SEQ ID NO:2), overexpressed from expression constructs or used as recombinant/in vitro translated protein
- cytotoxicity index relative to control transfectants ([1]; listed as wild type Fortilin): significantly lower
- cytotoxicity index relative to control transfectants ([1]; listed as wild-type fortilin): significantly lower than the cytotoxicity index of control cells
- etoposide-induced cytotoxicity (LDH cytotoxicity index), time course ([1]; U2OS stably expressing Fortilin vs empty vector, 5 μg/mL etoposide, 48, 72, 96 hours): lesser amounts of etoposide-induced cytotoxicity after incubation periods of 48, 72, and 96 hours; also recorded: significantly less cytotoxicity at various time points after the etoposide challenge
- etoposide-induced cytotoxicity (LDH cytotoxicity index), dose response ([1]; U2OS stably expressing Fortilin vs empty vector, etoposide 2.5, 5, 10, 20 μg/mL, 48 hours): significantly lesser amounts of etoposide-induced cytotoxicity; also recorded: significantly less cytotoxicity over the wide range of etoposide concentrations
- co-precipitation of fortilin and p53 in vivo [2]: The presence of immunoprecipitated p53 was necessary and sufficient to co-precipitate fortilin
- inhibition of p53 transactivation of Bax gene (luciferase normalized to β-galactosidase) ([3]; twenty-four hours after transfection): inhibited p53 transactivation of the Bax gene
- inhibitory effect on p53 transactivation of Bax gene versus amount of Fortilin transfected ([3]; various amount of Fortilin-pFLAG): stronger inhibitory effects on p53 transactivation of the Bax gene; also recorded: larger inhibitory effect on p53 transactivation of Bax gene
- co-immunoprecipitation of Bcl-xL with Fortilin in vitro [4]: not
- co-precipitation of MCL1 with Fortilin in vitro [5]: co-precipitated with Fortilin
- suppression of p53 induced apoptosis (apoptotic index) [6]: statistically significant (p<0.001) suppression of p53-induced apoptosis; also recorded: statistically significant (p<0.001) suppression of p53 induced apoptosis
- interaction / co-immunoprecipitation with MCL1 in vitro [7]: co-immunoprecipitated with Fortilin in vitro
- interaction / co-immunoprecipitation with MCL1 in vitro ([7]; listed as full-length Fortilin): co-immunoprecipitated MCL1 in vitro; also recorded: interacted
- co-immunoprecipitation of Bax with Fortilin in vitro [8]: not
- prevention of Bax mediated apoptosis (apoptotic index) [9]: suppressed Bax induced cell death
- co-immunoprecipitation of PCNA with Fortilin in vitro [10]: not PCNA
- co-immunoprecipitation of Bcl-xL with Fortilin in vitro [11]: not Bcl-xL
- co-immunoprecipitation of p53 with Fortilin in vitro [12]: co-immunoprecipitated with Fortilin in vitro
- co-immunoprecipitation of MCL1 in vivo [13]: co-immunoprecipitated MCL1
